In US20140235701, “NGF APTAMER AND APPLICATION THEREOF” (RIBOMIC INC., published 2014):
Changes are numbered by the printed parent chain.

How the values were obtained:
Conditions in all cases: tags: R&D Systems; chain copies: 2
[1] = molecular target: T1, NGF (nerve growth factor) (Homo sapiens, UniProt P01138 P01138:122-241); test: cell_activity; TF-1 cell proliferation inhibition
Protocol: Two NGF receptor (human TrkA and human p75) genes were introduced into TF-1 cells (ATCC Number: CRL-2003), which is a human erythroleukemic cell line, by using a retrovirus vector to give cells that highly express two receptors simultaneously and stably. The cells were suspended in an RPMI-1640 medium containing 20% fetal bovine serum, and seeded in a white 96 well flat-bottom plate at 1000 cells (50 μL) per well. […] With the amount of luminescence per well obtained by the addition of NGF alone and culture of the cells for 3 days as inhibitory activity 0%, and that of the well obtained by NGF free culture for 3 days as inhibitory activity 100%, the inhibitory activity of the aptamer was calculated from the amount of luminescence per well obtained by culturing with the addition of NGF and the aptamer in mixture.

NT-3 (neurotrophin-3) [2] = molecular target: T2, NT-3 (neurotrophin-3) (Homo sapiens, UniProt P20783 P20783:139-257); test: cell_activity; TF-1 TrkC/p75 cells
T2 sequence: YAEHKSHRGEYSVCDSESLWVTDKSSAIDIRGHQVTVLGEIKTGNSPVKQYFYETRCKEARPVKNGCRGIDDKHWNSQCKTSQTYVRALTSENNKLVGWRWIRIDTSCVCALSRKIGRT
Excerpt: (§1) Using TF-1 cells, whether NGF aptamer inhibits BDNF, NT-3, NT-4 was examined. Human receptor genes (TrkB, TrkC, p75) for respective neurotrophic factors were introduced into TF-1 cells (ATCC Number: CRL-2003), which is a human erythroleukemic cell line, by using a retrovirus vector to give cells that highly express these receptors stably. TF-1 cells introduced with TrkB and p75 were used for the evaluation of inhibitory activity against BDNF, TF-1 cells introduced with TrkC and p75 were used for the evaluation against NT-3, and TF-1 cells introduced with TrkB alone were used for the evaluation against NT-4. These cells were suspended in an RPMI-1640 medium containing 20% fetal bovine serum, and seeded in a white 96 well flat-bottom plate at 1000 cells (50 μL) per well. Thereto was added a mixed solution 50 μL of human BDNF (final concentration 0.074 nM) or NT-3 (final concentration 0.074 nM) or NT-4 (final concentration 0.071 nM) and the aptamer (final concentration 1 μM-0.01 nM), which had been pre-reacted at room temperature for 30 min in a serum-free RPMI-1640 medium, 3 days later, 100 μL of CellTiter-Glo reagent for CellTiter-Glo Luminescent Cell Viability Assay (manufactured by Promega) was added to each well, chemiluminescence was measured by a microplate reader. With the amount of luminescence per well obtained by the addition of BDNF or NT-3 or NT-4 alone and culture of the cells for 3 days as inhibitory activity 0%, and that of the well obtained by culture for 3 days without addition of BDNF or NT-3 or NT-4 as inhibitory activity 100%, the inhibitory activity of the aptamer was calculated from the amount of luminescence per well obtained by culturing with the addition of BDNF or NT-3 or NT-4 and the aptamer in mixture. When the inhibitory activity was 0 or below, ‘0%’ is indicated. The 50% inhibitory concentration (IC₅₀) was determined from the concentrations at two, above and below points sandwiching the 50% inhibitory activity. An IC₅₀ value indicated as “>X” means that the inhibitory activity was not more than 50% when the indicated concentration X was the maximum measured concentration. N.D. means not measured.

[3] = molecular target: T1, NGF (nerve growth factor); test: cell_activity; neurite outgrowth inhibition
Protocol: The cells (2500 cells per well) were cultured for one day in an RPMI-1640 medium containing 2.5% horse serum and 1.25% fetal bovine serum in a 96 well flat-bottom plate coated with collagen type IV. […] Two days later, the cytoplasm and nuclei were stained using Cellomics Neurite Outgrowth Kit (manufactured by Thermo Scientific), and neurite length per cell was measured by Cellomics ArrayScan VTI (manufactured by Thermo Scientific). With the neurite length per cell obtained by the addition of NGF alone as inhibitory activity 0%, and that of the cell obtained by NGF free culture for 2 days as inhibitory activity 100%, the inhibitory activity of the aptamer was calculated from the neurite length per cell obtained by culturing with the addition of NGF and the aptamer in mixture.

[4] = molecular target: T1, NGF (nerve growth factor); test: cell_activity; neurite; TF-1 0.013
[5] = molecular target: T1, NGF (nerve growth factor); test: SPR; binding maintained on shortening
[6] = molecular target: T1, NGF (nerve growth factor); test: cell_activity; neurite; TF-1 <0.03
NT-4 (neurotrophin-4) [7] = molecular target: T3, NT-4 (neurotrophin-4) (Homo sapiens, UniProt P34130 P34130:81-210); test: cell_activity; TF-1
T3 sequence: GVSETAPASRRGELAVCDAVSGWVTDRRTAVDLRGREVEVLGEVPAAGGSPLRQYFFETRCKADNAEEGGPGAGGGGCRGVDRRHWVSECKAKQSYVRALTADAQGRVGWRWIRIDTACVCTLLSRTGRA
Excerpt: as §1

NT-3 (neurotrophin-3) [8] = molecular target: T2, NT-3 (neurotrophin-3); test: cell_activity; TF-1
Excerpt: as §1

NT-4 (neurotrophin-4) [9] = molecular target: T3, NT-4 (neurotrophin-4); test: cell_activity; TF-1 TrkB cells
Excerpt: Using TF-1 cells, whether NGF aptamer inhibits BDNF, NT-3, NT-4 was examined. Human receptor genes (TrkB, TrkC, p75) for respective neurotrophic factors were introduced into TF-1 cells (ATCC Number: CRL-2003), which is a human erythroleukemic cell line, by using a retrovirus vector to give cells that highly express these receptors stably. TF-1 cells introduced with TrkB and p75 were used for the evaluation of inhibitory activity against BDNF, TF-1 cells introduced with TrkC and p75 were used for the evaluation against NT-3, and TF-1 cells introduced with TrkB alone were used for the evaluation against NT-4. These cells were suspended in an RPMI-1640 medium containing 20% fetal bovine serum, and seeded in a white 96 well flat-bottom plate at 1000 cells (50 μL) per well. Thereto was added a mixed solution 50 μL of human BDNF (final concentration 0.074 nM) or NT-3 (final concentration 0.074 nM) or NT-4 (final concentration 0.071 nM) and the aptamer (final concentration 1 μM-0.01 nM), which had been pre-reacted at room temperature for 30 min in a serum-free RPMI-1640 medium, 3 days later, 100 μL of CellTiter-Glo reagent for CellTiter-Glo Luminescent Cell Viability Assay (manufactured by Promega) was added to each well, chemiluminescence was measured by a microplate reader. With the amount of luminescence per well obtained by the addition of BDNF or NT-3 or NT-4 alone and culture of the cells for 3 days as inhibitory activity 0%, and that of the well obtained by culture for 3 days without addition of BDNF or NT-3 or NT-4 as inhibitory activity 100%, the inhibitory activity of the aptamer was calculated from the amount of luminescence per well obtained by culturing with the addition of BDNF or NT-3 or NT-4 and the aptamer in mixture. […] The 50% inhibitory concentration (IC₅₀) was determined from the concentrations at two, above and below points sandwiching the 50% inhibitory activity. An IC₅₀ value indicated as “>X” means that the inhibitory activity was not more than 50% when the indicated concentration X was the maximum measured concentration. N.D. means not measured.

[10] = molecular target: T1, NGF (nerve growth factor); test: cell_activity; neurite; TF-1 0.034
[11] = molecular target: T1, NGF (nerve growth factor); test: SPR; inhibits NGF-receptor binding; inhibits neurite outgrowth at 10 nM
[12] = molecular target: T1, NGF (nerve growth factor); test: SPR; more than 40N
Protocol: As the measuring apparatus, BIAcore2000 manufactured by BIAcore was used and, as the sensor chip, CM5 that reacts with an amino group was used. […] For the reaction of an amino group on the protein side and a carboxyl group on the chip side, ethyl-3-carbodiimide hydrochloride and N-hydroxysuccinimide were used. After the reaction, blocking by ethanolamine-HCl was performed. The immobilized amount of NGF was set to 3,000-4,000 RU. An aptamer for analyte was prepared to 0.15 μM-0.5 μM. As a running buffer, solution A was used. Here, solution A is a mixed solution of 145 mM sodium chloride, 5.4 mM potassium chloride, 1.8 mM calcium chloride, 0.8 mM magnesium chloride, 20 mM Tris (pH 7.6), 0.05% Tween 20. As a regeneration solution, a mixed solution of 1M NaCl and 50 mM NaOH was used. NGF was immobilized on FC2, and the results of FC1 were subtracted to give a final sensorgram.
The binding activity of these aptamers to NGF was evaluated by the surface plasmon resonance method in the same manner as in Example 1.

T1 sequence (P01138 122-241, one chain of several): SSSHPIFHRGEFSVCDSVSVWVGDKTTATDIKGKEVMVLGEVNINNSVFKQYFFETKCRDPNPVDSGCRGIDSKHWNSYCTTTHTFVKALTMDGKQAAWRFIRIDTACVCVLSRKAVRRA

B1: SEQ ID NO: 82(55) (ssRNA)
RNA: GGGUCCUGGAUAAGAGUUUCCGUCUCGUAUCCUGUUACCC
modifications: 2'-F C5,U7,U17,U18,U19,C20,C24,U25,U33,U36; 2'-OH G8,G34; 2'-H A; 2'-OMe all other; 5' PEG80TS4; 3' idT
Q: Which results are given for B1?
A: IC50 [1]: 0.039 nM; IC50 (NT-3 (neurotrophin-3) [2]): 0.97 nM; IC50 [3]: 0.101 nM

B2: SEQ ID NO: 77(1) (ssRNA)
RNA: B1 RNA with G9A, A10C, U30G, C31U
modifications: 2'-OMe G (G8,G34 2'-OH), dA, 2'-F C/U; 5',3' idT
Q: With B2 as the binder, how does the IC50 [4] read?
A: 0.126 nM

B3: SEQ ID NO: 91 (ssRNA)
RNA: B1 RNA with G9C, A10C, U30G, C31G
modifications: 2'-F C and U; 2'-OH G; 2'-H (deoxy) A
Q: Does B3 bind [5]?
A: binds

B4: SEQ ID NO: 76(1) (ssRNA)
RNA: B1 RNA with G9A, A10U, U30A, C31U
modifications: 2'-OMe G (G8,G34 2'-OH), dA, 2'-F C/U; 5',3' idT
Q: B4 was tested. Which IC50 [4] did it give?
A: 0.117 nM

B5: SEQ ID NO: 90 (ssRNA)
RNA: B1 RNA with G9C, A10G, C31G
modifications: 2'-F C and U; 2'-OH G; 2'-H (deoxy) A
Q: Does B5 bind [5]?
A: binds

B6: SEQ ID NO: 158 (ssRNA)
RNA: B1 RNA with U33T
modifications: as 82(1) except dT33
Q: For B6, which IC50 [6] is on record?
A: 0.1 nM

Q: And the IC50 (NT-4 (neurotrophin-4) [7])?
A: < 3 nM

Q: And the IC50 (NT-3 (neurotrophin-3) [8])?
A: < 30 nM

B7: SEQ ID NO: 82(2) (ssRNA)
RNA: B1 RNA
modifications: 2'-F C and U except U4; 2'-OMe G1-3,U4,G9,G14,G16,G22,G27; 2'-OH G8,G34; 2'-H A; idT 5' and 3'
Q: How did the IC50 [1] turn out when B7 was run?
A: 0.041 nM

Q: And the IC50 (NT-3 (neurotrophin-3) [2])?
A: 40.6 nM

Q: And the IC50 (NT-4 (neurotrophin-4) [9])?
A: < 3 nM

B8: SEQ ID NO: 82(6) (ssRNA)
RNA: B1 RNA
modifications: as 82(1) except 2'-OMe C21
Q: B8 was tested. Which IC50 [10] did it give?
A: 0.128 nM

Q: What about the IC50 (NT-4 (neurotrophin-4) [7]) of the same binder?
A: < 3 nM

Q: What about the IC50 (NT-3 (neurotrophin-3) [8]) of the same binder?
A: < 30 nM

B9: SEQ ID NO: 6 (ssRNA)
RNA: GGGAGAACUUCGACCAGAAGUGCAAUACUUUCGCGGCAUAUGUGCAAACCUUGCCACGACUAUGUGCGCAUACAUGGAUCCUC
modifications: 2'-F C and U; 2'-OH G; 2'-H (deoxy) A
Q: Does B9 bind [11]?
A: binds

B10: SEQ ID NO: 8 (ssRNA)
RNA: GGGAGAACUUCGACCAGAAGAUCCACUGGUACUACGUGACCCCGCAUAGGCAAUCCUGCUUAUGUGCGCAUACAUGGAUCCUC
modifications: 2'-F C and U; 2'-OH G; 2'-H (deoxy) A
Q: Does B10 bind [11]?
A: binds

B11: SEQ ID NO: 92 (ssRNA)
RNA: GGGUCCUGACCAAGAGUUUCCGUCUCGUGGUCUGUACCC
modifications: 2'-F C and U; 2'-OH G; 2'-H (deoxy) A
Q: Does B11 bind [5]?
A: binds

B12: SEQ ID NO: 21 (ssRNA)
RNA: GGGAAUACUUUCGCGGCAUAUGUGCAAACCUUGCCACGACUAUGUCCC
modifications: 2'-F C and U; 2'-OH G; 2'-H (deoxy) A
Q: Does B12 bind [12]?
A: binds
